Article PMC7886051, “Redesigning the Molecular Choreography to Prevent Hydroxylation in Germacradien-11-ol Synthase Catalysis” (ACS Catalysis, 2021)
Where a chain is given by its changes, count along the chain named. Names may count otherwise.

Substrate: CC(C)=CCC/C(C)=C/CC/C(C)=C/CO[P@@](=O)(O)OP(=O)(O)O
Assay: steady-state kinetics of purified enzyme (details in supplement)
Type: biochemical, Streptomyces coelicolor
Details: Mg2+-dependent enzyme; assay conditions in supplement
Description: steady-state kinetics of purified enzyme (details in supplement) on Gd11olS (germacradien-11-ol synthase; N-terminal domain of geosmin synthase)

B1: Gd11olS (germacradien-11-ol synthase; N-terminal domain of geosmin synthase) (Streptomyces coelicolor A3(2); V187A) (protein)
chain: MTQQPFQLPHFYLPHPARLNPHLDEARAHSTTWAREMGMLEGSGVWEQSDLEAHDYGLLCAYTHPDCDGPALSLITDWYVWVFFFDDHFLEKYKRSQDRLAGKAHLDRLPLFMPLDDAAGMPEPRNPVEAGLADLWTRTVPAMSADWRRRFAVATEHLLNESMWELSNINEGRVANPVEYIEMRRKAGGAPWSAGLVEYATAEVPAAVAGTRPLRVLMETFSDAVHLRNDLFSYQREVEDEGELSNGVLVLETFFGCTTQEAADLVNDVLTSRLHQFEHTAFTEVPAVALEKGLTPLEVAAVGAYTKGLQDWQSGGHEWHMRSSRYMNKGERPLAGWQALTGPGTSAADVGALLADAVAQRARSYT
notes: N-terminal domain, residues 1-366 of geosmin synthase; codon-optimized synthetic gene in pET28a, expressed in E. coli, purified to homogeneity; tag details in supplement
Km: 0.3 ± 0.06 µM
kcat: 0.000194 ± 1e-07 s⁻¹

B2: Gd11olS (germacradien-11-ol synthase; N-terminal domain of geosmin synthase) (Streptomyces coelicolor A3(2)) (protein)
chain: B1 chain with A187V
notes: as for B1
Km: 0.5 ± 0.08 µM
kcat: 0.000524 ± 2e-07 s⁻¹

B3: Gd11olS (germacradien-11-ol synthase; N-terminal domain of geosmin synthase) (Streptomyces coelicolor A3(2); H320A) (protein)
chain: B1 chain with A187V, H320A
notes: as for B1
Km: 1.12 ± 0.10 µM
kcat: 3.8e-05 ± 1e-07 s⁻¹

B4: Gd11olS (germacradien-11-ol synthase; N-terminal domain of geosmin synthase) (Streptomyces coelicolor A3(2); W312F) (protein)
chain: B1 chain with A187V, W312F
notes: as for B1
Km: 0.9 ± 0.09 µM
kcat: 0.000255 ± 6e-07 s⁻¹

B5: Gd11olS (germacradien-11-ol synthase; N-terminal domain of geosmin synthase) (Streptomyces coelicolor A3(2); G188S) (protein)
chain: B1 chain with A187V, G188S
notes: as for B1
Km: 5.7 ± 0.9 µM
kcat: 4.08e-05 ± 2e-06 s⁻¹

B6: Gd11olS (germacradien-11-ol synthase; N-terminal domain of geosmin synthase) (Streptomyces coelicolor A3(2); R228V) (protein)
chain: B1 chain with A187V, R228V
notes: as for B1
Km: 0.8 ± 0.10 µM
kcat: 0.0001814 ± 4e-07 s⁻¹

B7: Gd11olS (germacradien-11-ol synthase; N-terminal domain of geosmin synthase) (Streptomyces coelicolor A3(2); G188A) (protein)
chain: B1 chain with A187V, G188A
notes: as for B1
Km: 3.8 ± 1.5 µM
kcat: 3.7e-05 ± 5e-06 s⁻¹

B8: Gd11olS (germacradien-11-ol synthase; N-terminal domain of geosmin synthase) (Streptomyces coelicolor A3(2); H320F) (protein)
chain: B1 chain with A187V, H320F
notes: as for B1
Km: 1.8 ± 0.5 µM
kcat: 2.3e-05 ± 2e-07 s⁻¹

B9: Gd11olS (germacradien-11-ol synthase; N-terminal domain of geosmin synthase) (Streptomyces coelicolor A3(2); Q313A) (protein)
chain: B1 chain with A187V, Q313A
notes: as for B1
Km: 1.10 ± 0.14 µM
kcat: 6.9e-05 ± 2e-07 s⁻¹

B10: Gd11olS (germacradien-11-ol synthase; N-terminal domain of geosmin synthase) (Streptomyces coelicolor A3(2); W312A) (protein)
chain: B1 chain with A187V, W312A
notes: as for B1
Km: 0.4 ± 0.07 µM
kcat: 4.02e-05 ± 1e-07 s⁻¹

B11: Gd11olS (germacradien-11-ol synthase; N-terminal domain of geosmin synthase) (Streptomyces coelicolor A3(2); Q313N) (protein)
chain: B1 chain with A187V, Q313N
notes: as for B1
Km: 0.5 ± 0.07 µM
kcat: 5.02e-05 ± 1e-07 s⁻¹
